Laboratory results as given in patent US20100267637A1, “TREATMENT OF MELANOMA WITH ALPHA THYMOSIN PEPTIDES IN COMBINATION WITH A KINASE INHIBITOR” (SciClone Pharmaceuticals, Inc., priority 2007, published 2010).
Entries after “also recorded” stand apart in the source; their conditions may differ. Where no end group is shown, it is not given here.

Experiment: Treatment toxicity: body weight and drug-induced animal deaths in B16 melanoma-bearing mice
Assay type: in vivo, C57BL/6 mice
Details: for body weight effect in words (loss / difference vs vehicle group): throughout the course of the study
Experimental: The toxic effects of the dosing regimens were also monitored. […] Meanwhile 9H10 was given in two groups via i.p. on Day 3, 6 and 9. […] Tumor volume and body weight were measured every three days, and tumor weights were measured on Day 16 at the end of the study.
On Day 3, the animals were randomly assigned into nine different weight-matched and tumor-size-matched groups. Dosing was started on Day 3 using the regimen according to Table 2.
From Day 1 to Day 15, mortality and moribundity were checked twice daily, the body weights were recorded once every 3 days, and tumors were measured using a caliper once every 3 days. At the end of the study (Day 16), the animals were euthanized by CO2 asphyxiation, and the tumors were excised and weighed.
Toxicity of all treatment regimens was evaluated with the body weights of the study animals along with the drug-induced animal deaths. The inhibition of body weight was calculated using Excel according to the equation below:
PIBW(%)=100×(BW vehicle−BW drug treated)/BW vehicle
Inter-group comparison was performed in terms of tumor volume, tumor weight and body weight, using a student's t test. P values of less than 0.05 were considered to be statistically significant.

## CNC(=O)c1cc(Oc2ccc(NC(=O)Nc3ccc(Cl)c(C(F)(F)F)c3)cc2)ccn1 [Sorafenib]
Day 0 (tumor implantation, before dosing)
  Body Weight (g) (Mean ± SD): 21.02 ± 0.834 g
Day 0
  Percent inhibition of body weight vs vehicle (PIBW): −0.9121%
Day 3
  Percent inhibition of body weight vs vehicle (PIBW): 0.0000%
Day 6
  Body Weight (g) (Mean ± SD): 20.74 ± 1.023 g
  Percent inhibition of body weight vs vehicle (PIBW): −1.6667%
Day 9
  Body Weight (g) (Mean ± SD): 19.75 ± 1.307 g
  Percent inhibition of body weight vs vehicle (PIBW): 3.2337%
Day 9, animal F1
  Body weights on Day 9: 18.60 g
Day 9, animal F2
  Body weights on Day 9: 18.40 g
Day 9, animal F3
  Body weights on Day 9: 18.40 g
Day 9, animal F4
  Body weights on Day 9: 18.60 g
Day 9, animal F5
  Body weights on Day 9: 19.80 g
Day 9, animal M1
  Body weights on Day 9: 20.80 g
Day 9, animal M2
  Body weights on Day 9: 22.10 g
Day 9, animal M3
  Body weights on Day 9: 20.40 g
Day 9, animal M4
  Body weights on Day 9: 21.10 g
Day 9, animal M5
  Body weights on Day 9: 19.30 g
Day 12
  Body Weight (g) (Mean ± SD): 20.09 ± 1.534 g
  Percent inhibition of body weight vs vehicle (PIBW): 8.2229%
Day 12, animal F1
  Body weights on Day 12: 19.00 g
Day 12, animal F2
  Body weights on Day 12: 17.20 g
Day 12, animal F3
  Body weights on Day 12: 20.80 g
Day 12, animal F4
  Body weights on Day 12: 18.30 g
Day 12, animal F5
  Body weights on Day 12: 20.30 g
Day 12, animal M1
  Body weights on Day 12: 22.10 g
Day 12, animal M2
  Body weights on Day 12: 21.40 g
Day 12, animal M3
  Body weights on Day 12: 20.40 g
Day 12, animal M4
  Body weights on Day 12: 21.50 g
Day 12, animal M5
  Body weights on Day 12: 19.90 g
Day 12, listed as Sorafenib alone
  Percent inhibition of body weight vs vehicle (PIBW): 8.22%
Day 15
  Body Weight (g) (Mean ± SD): 21.41 ± 1.919 g
  Percent inhibition of body weight vs vehicle (PIBW): 3.2972%
Day 15, animal F1
  Body weights on Day 15: 20.70 g
Day 15, animal F2
  Body weights on Day 15: 17.50 g
Day 15, animal F3
  Body weights on Day 15: 21.10 g
Day 15, animal F4
  Body weights on Day 15: 19.90 g
Day 15, animal F5
  Body weights on Day 15: 21.50 g
Day 15, animal M1
  Body weights on Day 15: 23.90 g
Day 15, animal M2
  Body weights on Day 15: 23.80 g
Day 15, animal M3
  Body weights on Day 15: 22.20 g
Day 15, animal M4
  Body weights on Day 15: 22.80 g
Day 15, animal M5
  Body weights on Day 15: 20.70 g

## Thymosin Alpha-1 (Ac-SDAAVDTSSEITTKDLKEKKEVVEEAEN; ends and bridges not checked; UniProt P06454 2-29, looked up) [TA-1, 28 amino acid peptide, immunomodulator; test article (SciClone), 6 mg/kg s.c. daily]
Day 0, animal F1
  Body weights on Day 0: 21.40 g
Day 0, animal F2
  Body weights on Day 0: 19.20 g
Day 0, animal F3
  Body weights on Day 0: 21.10 g
Day 0, animal F4
  Body weights on Day 0: 20.20 g
Day 0, animal F5
  Body weights on Day 0: 19.00 g
Day 0, animal M1
  Body weights on Day 0: 21.60 g
Day 0, animal M2
  Body weights on Day 0: 22.50 g
Day 0, animal M3
  Body weights on Day 0: 22.10 g
Day 0, animal M4
  Body weights on Day 0: 21.70 g
Day 0, animal M5
  Body weights on Day 0: 19.80 g
Day 0
  Percent inhibition of body weight vs vehicle (PIBW): −0.1440%
Day 3 (start of dosing)
  Body Weight (g) (Mean ± SD): 20.44 ± 1.460 g
Day 3, animal F3
  Body weights on Day 3: 20.40 g
Day 3, animal F4
  Body weights on Day 3: 20.30 g
Day 3, animal F5
  Body weights on Day 3: 17.20 g
Day 3, animal M1
  Body weights on Day 3: 21.40 g
Day 3, animal M2
  Body weights on Day 3: 22.20 g
Day 3, animal M3
  Body weights on Day 3: 21.60 g
Day 3, animal M4
  Body weights on Day 3: 21.50 g
Day 3
  Percent inhibition of body weight vs vehicle (PIBW): 2.1073%
Day 6
  Body Weight (g) (Mean ± SD): 21.38 ± 1.220 g
  Percent inhibition of body weight vs vehicle (PIBW): −4.8039%
Day 6, animal F1
  Body weights on Day 6: 22.10 g
Day 6, animal F2
  Body weights on Day 6: 20.10 g
Day 6, animal F3
  Body weights on Day 6: 21.80 g
Day 6, animal F4
  Body weights on Day 6: 20.80 g
Day 6, animal F5
  Body weights on Day 6: 20.20 g
Day 6, animal M1
  Body weights on Day 6: 22.00 g
Day 6, animal M2
  Body weights on Day 6: 22.90 g
Day 6, animal M3
  Body weights on Day 6: 22.30 g
Day 6, animal M4
  Body weights on Day 6: 22.40 g
Day 6, animal M5
  Body weights on Day 6: 19.20 g
Day 9, animal F1
  Body weights on Day 9: 21.50 g
Day 9, animal F2
  Body weights on Day 9: 19.70 g
Day 9, animal F3
  Body weights on Day 9: 20.30 g
Day 9, animal F4
  Body weights on Day 9: 20.40 g
Day 9, animal F5
  Body weights on Day 9: 19.20 g
Day 9, animal M1
  Body weights on Day 9: 21.50 g
Day 9, animal M2
  Body weights on Day 9: 22.40 g
Day 9, animal M3
  Body weights on Day 9: 22.00 g
Day 9, animal M4
  Body weights on Day 9: 21.90 g
Day 9, animal M5
  Body weights on Day 9: 19.90 g
Day 9
  Percent inhibition of body weight vs vehicle (PIBW): −2.3028%
Day 12
  Body Weight (g) (Mean ± SD): 21.24 ± 1.623 g
  Percent inhibition of body weight vs vehicle (PIBW): 2.9694%
Day 12, animal F1
  Body weights on Day 12: 21.90 g
Day 12, animal F2
  Body weights on Day 12: 19.10 g
Day 12, animal F3
  Body weights on Day 12: 20.70 g
Day 12, animal F5
  Body weights on Day 12: 18.90 g
Day 12, animal M1
  Body weights on Day 12: 22.60 g
Day 12, animal M2
  Body weights on Day 12: 23.50 g
Day 12, animal M3
  Body weights on Day 12: 22.70 g
Day 12, animal M4
  Body weights on Day 12: 22.40 g
Day 12, animal M5
  Body weights on Day 12: 19.70 g
Day 15
  Body Weight (g) (Mean ± SD): 22.74 ± 1.459 g
  Percent inhibition of body weight vs vehicle (PIBW): −2.7100%
Day 15, animal F1
  Body weights on Day 15: 24.30 g
Day 15, animal F2
  Body weights on Day 15: 20.70 g
Day 15, animal F3
  Body weights on Day 15: 22.30 g
Day 15, animal F4
  Body weights on Day 15: 21.80 g
Day 15, animal F5
  Body weights on Day 15: 21.30 g
Day 15, animal M1
  Body weights on Day 15: 22.60 g
Day 15, animal M2
  Body weights on Day 15: 24.50 g
Day 15, animal M3
  Body weights on Day 15: 24.70 g
Day 15, animal M4
  Body weights on Day 15: 23.70 g
Day 15, animal M5
  Body weights on Day 15: 21.50 g
  body weight effect in words (loss / difference vs vehicle group): did no cause any statistically significant loss of body weights; also recorded: did not cause any loss of body weights
Listed as TA-1 alone
  body weight effect in words (loss / difference vs vehicle group): no statistical differences in body weights
